The target of test [1] is 磷酸二(2-乙基己基)酯蛋白偶联物 (di(2-ethylhexyl) phosphate coupled to bovine serum albumin) (bovine (牛)) (UniProt P02769). In words: indirect ELISA, D-BSA coated on plate, antibody titrated, OD450; unit from the x axis of Figure 1.
Test [2] has the same target. The experiment in a line: indirect ELISA, D-BSA coated on plate, antibody titrated, OD450. (ELISA stands for enzyme-linked immunosorbent assay.)

UniProt P02769, sequence (P02769 25-607 limits assumed, form in doubt): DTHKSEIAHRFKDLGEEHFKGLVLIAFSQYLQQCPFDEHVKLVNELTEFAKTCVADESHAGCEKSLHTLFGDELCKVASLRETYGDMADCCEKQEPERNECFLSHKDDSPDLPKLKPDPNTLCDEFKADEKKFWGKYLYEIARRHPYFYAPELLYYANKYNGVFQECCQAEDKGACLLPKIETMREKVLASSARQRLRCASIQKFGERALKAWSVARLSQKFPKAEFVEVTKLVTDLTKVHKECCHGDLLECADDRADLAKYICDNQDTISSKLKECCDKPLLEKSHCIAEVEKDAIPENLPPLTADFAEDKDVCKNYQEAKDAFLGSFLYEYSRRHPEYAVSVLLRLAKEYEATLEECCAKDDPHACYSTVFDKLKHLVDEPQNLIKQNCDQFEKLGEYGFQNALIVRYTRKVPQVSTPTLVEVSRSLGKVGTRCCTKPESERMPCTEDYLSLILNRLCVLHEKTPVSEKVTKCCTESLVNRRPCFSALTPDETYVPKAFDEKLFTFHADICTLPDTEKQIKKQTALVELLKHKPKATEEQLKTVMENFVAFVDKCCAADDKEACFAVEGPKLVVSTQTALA

B1: 磷酸二(2-乙基己基)酯单克隆抗体 (monoclonal antibody against di(2-ethylhexyl) phosphate, secreted by hybridoma cell line 2D5, CCTCC NO: C2021136) (antibody, V domains shown)
VH: QVQLQQSGAELVRPGSSVKISCKASGYAFSSYWMNWVKQRPGQGLEWIGQIYPGDGDTNYNGKFKGKATLTADKSSSTAYMQLSSLTSEDSAVYFCARSDYPWFVYWGQGTLVTVSA
VL: QIVLTQSPAIMSASPGEKVTISCSASSSVSYMYWYQQKPGSSPKPWIYRTSNLASGVPARFSGSGSGTSYSLTISSMEAEDAATYYCQQYHSYPWTFGGGTKLEIK
Molecule B1 displayed a C of the ELISA titer curve y=(A-D)/(1+(x/C)^B)+D (midpoint antibody concentration) in test [1] of 62.4 ng/mL. In test [2], the A of the ELISA titer curve (lower asymptote, OD450) stood at 0.203 OD450 and the D of the ELISA titer curve (upper asymptote, OD450) was 2.19 OD450.

Source of the values: patent CN114317447A.
